Like-named read-outs stand apart in the source and are kept apart here.
Legend:
Assay in all cases: EMSA
[1] = tested on: T1, AbiEi (Streptococcus suis serotype 5 strain HN105), ORF:22a13f51
T1 sequence: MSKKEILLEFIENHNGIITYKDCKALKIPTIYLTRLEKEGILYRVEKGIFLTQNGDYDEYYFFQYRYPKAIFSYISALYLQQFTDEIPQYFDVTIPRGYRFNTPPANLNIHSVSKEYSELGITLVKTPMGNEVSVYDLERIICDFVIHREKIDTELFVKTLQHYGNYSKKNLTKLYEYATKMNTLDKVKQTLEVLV

[2] = tested on: T2, SezA (Streptococcus suis serotype 5 strain HN105), ORF:21ec5bb3
T2 sequence: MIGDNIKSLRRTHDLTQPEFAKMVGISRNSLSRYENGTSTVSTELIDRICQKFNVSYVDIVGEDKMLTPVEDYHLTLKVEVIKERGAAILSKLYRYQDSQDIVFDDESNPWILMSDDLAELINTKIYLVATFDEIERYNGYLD

[3] = tested on: T3, AbiEiDel-AHTH internal_change (Streptococcus suis serotype 5 strain HN105), ORF:22a13f51
T3 sequence: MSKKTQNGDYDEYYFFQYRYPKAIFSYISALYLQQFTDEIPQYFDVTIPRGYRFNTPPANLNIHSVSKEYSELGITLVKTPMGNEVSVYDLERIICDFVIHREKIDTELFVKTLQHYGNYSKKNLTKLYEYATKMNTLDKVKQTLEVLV

[4] = tested on: SezA (Streptococcus suis serotype 5 strain HN105)
[5] = tested on: AbiEi (Streptococcus suis serotype 5 strain HN105)

GGGACATTATAACCGATGAGGAACAAATTCTTGATAAGTCAATCCAAGAAGCGAAAAATAAACTGAATACTGAGCAGTTGGAGAAGCGAATAGAGGAGTTTAAGCAATCGAAGAAACCTAAAAACGGATAATGCACCAAATATGGTGCGTTATCCGTTTTTTATGGTATAATGAAAGCAAATATGAGGAGGTCTTTATCT (double strand) [SezAT promoter]
binding [1]: binds
binding [2]: binds

AGAAAGTGATGATTACATGTTTTGGTCATAAATAGTCCTTCTTTTCTTTTTTCTGTAGCAACAAACTGTCACTCTTTTCTCATCATAAAAAAGAAGGCTTGATTTTGTTATCACAATACATTAATGTAAAAGAAATATTGTAAAATTGTAGTATAAAAGCAACATTGGAAGGAGTAAGT (double strand) [PAbiE-ΔIR2]
binding ([1]; IR2 deleted): binds

AGAAAGTGATGATTACATGTTTTGGTCATAAATAGTCCTTCTTTTCTTTTTTCTGTAGCAACAAACTGTCACTCTTTTCTCATCATAAAAAAGAAGGCTTGATTTTGTTATCACAATACATTAATGTAAAAGAAAATGTTGCTTTTGCACTACAAATATTGTAAAATTGTAGTATAAAAGCAACATTGGAAGGAGTAAGT (double strand) [AbiE promoter]
binding [1]: binds
binding [3]: no binding
binding [2]: no binding

AGATAAAGACCTCCTCATATTTGCTTTCATTATACCATATATTAGGTTTCTTCGATTGCTTAAACTCCTCTATTCGCTTCTCCAACTGCTCAGTATTCAGTTTATTTTTCGCTTCTTGGATTGACTTATCAAGAATTTGTTCCTCATCGGTTATAATGTCCC (double strand) [PSezAT-ΔIR1/2]
binding ([2]; IR1 and IR2 deleted): no binding

AGAAAGTGATGATTACATGTTTTGGTCATAAATAGTCCTTCTTTTCTTTTTTCTGTAGCAACAAACTGTCACTCTTTTCTCATCATAAAAAAGAAGGCTTGATTTTGTTATCACAATACATTAATGTAAAAGAAATATTGTAAAAGGAAGGAGTAAGT (double strand) [PAbiE-ΔIR1/2]
binding ([1]; IR1 and IR2 deleted): no binding

L sequence (attL)
Kd [4]: 1.96 µM

T sequence (oriT)
Kd [5]: 0.153 µM

AGTACAGGACTGGATTCAATTTTATGCCAAAATTCCTGCCAAACTTCAAATTTATGAACTCAAACCCCTTGATACTGCACATTTAACAGGTTGTGCAATTTAGAGTTTCCAATCAAAATAAAAACCTATCACCTAATGTGGTAGGTTTTTTTTGTTCTATTGTTGCAAACGTTTTCGTTGTGGGGTATAATATAAAAAAT (double strand) [L-ΔattL]
binding ([2]; attL deleted): no binding

ACTTACTCCTTCCTTTTACAATATTTGTAGTGCAAAAGCAACATTTTCTTTTACATTAATGTATTGTGATAACAAAATCAAGCCTTCTTTTTTATGATGAGAAAAGAGTGACAGTTTGTTGCTACAGAAAAAAGAAAAGAAGGACTATTTATGACCAAAACATGTAATCATCACTTTCT (double strand) [PAbiE-ΔIR1]
binding ([1]; IR1 deleted): binds

CCTACTATCCTTTCAACATGATATTTGTCTGACAATGTAAGGCTGCCTCACATTGTCAGTACGCTTCCTAAAGACTTCACTCTCTCCTTGTTCGGTCTTTGCGAGCTCAGATATTGTGTCCACAATATCCCCAGTAGAAAATCAACACTTGATTTTTTTAGGAATGATATTAGGATAATAGAGGTGATTTGGAAAAGGTATCACAAAACAAAAAGTAGGATATTTCTAACCTACTTTTCATTTCCTTATA (double strand) [T sequence (oriT)]
Kd [1]: 0.153 µM
binding [3]: no binding

AGTACAGGACTGGATTCAATTTTATGCCAAAATTCCTGCCAAACTTCAAATTTATGAACTCAAACCCCTTGATACTGCACATTTAACAGGTTGTGCAATTGTTACTCTTAAATAATAGAGTTTCCAATCAAAATAAAAACCTATCACCTAATGTGGTAGGTTTTTTTTGTTCTATTGTTGCAAACGTTTTCGTTGTGGGGTATAATATAAAAAAT (double strand) [L sequence (attL)]
Kd [2]: 1.96 µM

TATAAGGAAATGAAAAGTAGGTTAGAAATATCCTACTTTTTGTTTTGTGATACCTTTTCCAAATCACCTCTATTATCCTAATATCATTCCTAAAAAAATCAAGTGTTGATTTTCTACTGCGAACAAGGAGAGAGTGAAGTCTTTAGGAAGCGTACTGACAATGTGAGGCAGCCTTACATTGTCAGACAAATATCATGTTGAAAGGATAGTAGG (double strand) [T-ΔoriT]
binding ([1]; oriT deleted): no binding

From paper PMC11062541
